In the NTF2 design screens of Basanta et al. (2020):

Test: protease stability score; higher = more stable; yeast display proteolysis, trypsin and chymotrypsin;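 note: relative to predicted unfolded state with 0 unfolded-like and 1 meaning tenfold more protease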

Row | Sequence | protease stability score
1 | DEEEEESHEATEMILYAHKTGDFDLWEKLADPHVRLDVNGVHVHGREEYVRIMRHIHKNWGVQRFHVEFHDLELQGEKVRVRLRSNFNGRHHTETIIIEKINGRWYLKTRRIT | 1.42
2 | DEEEEESKQVAELIITLLTTGDEERFLELADPNVRHHQGDKELHGREDLHKTVEDWGWSKVDSRLEDVEVQGEFVIVRGKMIVNGRRVDVEYIVRKVDGRWYIHMVIYH | 1.07
3 | DEEEEETHEYMRLLVRLFLTGDEEVFDRLADPNRRLKWNGREYHGREQTNRVWRELGVKHRRIEDIKMQGDKVVIEGTVHIGDKTLRTTVSFVIIDGRTKSIEIRDI | 1.46
4 | DEEEEEVKKVFEMLEKSLETGDEKLWEHMADPNTRIDIGDKEIHGRESFHEIVKHIRIKDIRMRIHEWRTYDGRLDLRGQVELHLNINGKHLDITVEHRLIIVKINGRWLLEEETIV | -0.109
5 | DEEEEEVRKLAHIHLHWLKTGDEEFEKKYADPHTKFRFNGRSSHGMEDFAEWVREIRIHDVIIRRVRVVNGVNEIDMEVDFEFDGKRIRSQTQILLFIYDGRIKSTEFTIR | 0.805
6 | DEEEEEWERIARRLVKAWLTGDEDLLSFLADPHVRLHVGDKHNHGREHVERHWKEYLDRVKNVRIHVHHVEIQGEKIIIHVEVEINGRTFNMRVIIIVINGRIKEIVIHIH | 0.635
7 | DEEEEFAKELIEEVTKTILTGDFRTFLELFDPNARLEFNGREIHGMEDWLKMMDELRREIWIHHNHNHRIEVQGDKAHTESRLDVSYNGQRYTLHSRLSIDVVDGRLKRLEYRTK | 1.5
8 | DEEEEFATRIMKILLKALLTGDETTLKHLIDPHTRFIFVIGEKIVHVHGRDEIAKFWETLRREIRIEDITIDRIRVQGEKVETDGYIHIWIGDKLVDVESHDEWVIVNGRIKHIRMEIK | 1.93
9 | DEEEEFLHTLLRIFVEALMTGDEELLKKLADPHTKVRFNGQERHGWHAIQWMIEFFKNVRIEIHDMHIQGDKVHIDGRLKQGDKKLEMRIIIVIVNGKVHNEEYDLR | 1.12
10 | DEEEEFLRLILETLRHAAETGDWHILNRLLDPDARIVIGDKEIHGREKVQHEFRRIDHYQWHHIILDRVHIYDGRIELHGQVEEELNVDGQRIRRLTDTHFVIVKVDGQWKIHTIEIR | 2.22
11 | DEEEEFQRELVKLLVEWVHTGDWEHISKYADPHVKVHVDGRDSIGREEMRKTLKRFSDLLGADHIRFEHVRIIDGRVTIHSRVEYGDKEHHIIIQSSKIDGRWYLHSVDIR | 0.995
12 | DEEEEFYEKMFRLWFELLLTGDESTLIKLLDPHVRIDFNGRELIGWFYLSHFMREFRHRFDHVEIIIRRVTVIDGVARSDLELRVNINGKDHTVKTEVHIRVVNGRMKSLEFHIK | 0.965
13 | DEEEEHAEHMLRLWFHILHTGDWEDLVRLIDPNARLRVGDKTFHGMERLVRRHLEHKRRLGLDNFDFQVDNFEVYGDKIDIDVTENINGREYKVIIHIIVINGRVKNMHIKIN | 0.925
14 | DEEEEHAITFMKILIHLWITGDWETLKRLADPDTKVIERFNGKRVEIHGRELWSKIRKEIIDQLRIRIHPHHVSVVGDKLYSDEHLVFHYNGRDIRLDIHLEMVVVNGRMKHFRFHEE | 1.06
15 | DEEEEHFKWLVKLIFDAYLTGDEEVLYERADPNVRIDFNGVELHGREEMQRHLEHLMKKFKGLRIELKHFHIQGDKMFFQTEYRYNGKTVEARLFFDVVNGRLKRIIIEHR | 1.48
16 | DEEEEHFRRLLERFLHFWRTGDEDDYHKLADPHARSEVIIGDFRIESHGRHALEIWLRYMGIDHIHLEDSDSQGNKVHVHMHVKVGDKEHHVIIILIVIDGRVHQLTISVRRT | 1.13
17 | DEEEEHLHSVAKRFLHSVETGDWKDLYELLDPHARFESVFNGRKVEHHGREEARKWFQEWVERFKNMRLHIEEVRTQGDKTHVDSRVHYGDKTINTIIHIVIVNGKVHHVEIRVK | 2.2
18 | DEEEEHLRKIMEEMTRANETGDFESWARNADPDYQLNVGDKRKHGREDWQEDLKRVDHLRLEVRIRRMRDVDGRIEVVGDLIIFIKVGEYEFESHSKVIIYIIKINGRWFIKSIEFL | 1
19 | DEEEEHLRKMTKLLWDQIHTGDEKDFLRLADPNARFEVEINGRKYEAHGREEIKHMLHDILELLGIDHVRLRDLELQGNKVILHSDTHVNGQDSKMRIEILIVNGRLKSFKIQTL | 0.995
20 | DEEEEHLRTMWEIWMHALRTGDEDFMTNLADPNVRVLILQGDKEEESHGRDELSRLLREIRIEEFTITDVRIQGDKSEADVHVVGQIDGRRTRTKIRISFIIFNGRLHSIRFEIH | 2.2
21 | DEEEEHMKHHLDLWIKLVQTGNEEHIARMIDPNARFDINGKEEHGRESFRKHLHEILKFFGVDRFHHEIKELRVIDGRVHSVTLWEINGQRLDTRIHAHKVNGVWLVHSLEIK | 1.14
22 | DEEEEHMRKMHEKFRKIRHTGNFEDYFRLLDPNARMHVNGQNMHGRDVVSKWFKHFVEEIRIEHFEIHDVKYIDGRSHEDGWLVGTIDGKHFDSRTEIILIVVDGKLKQFHIHIR | 0.489
23 | DEEEEHSKKMTDWWLHAVLTGDEEKLRQMIDPDVKLHINGKDHVGREEAVKSLRELLHRLGVNHIHVERMDVVGDKVILNFHLRVGDKEHETRVILHIYNGRIKEIRIHIH | 2.16
24 | DEEEEHSKLADEEMLHNLLTGNEEHINKMADPNVRIVIGDKELHGMERWREEMRFFKGARIEIKRSRIFTQGDKMHSEVDGTLNFNGRRVEILIVLVVRKVNGRWRIEMISYHIV | 1.57
25 | DEEEEHSKNFLRLWINLWLTGDWRNLLKLADPNAKVVINGVRIHGMEFLVRLLHEEMEQVKNMRIHIHDRRLQGDKSTEILILHFDGVFYETRFHIDIVNGKVRRFQEERE | 0.181

Row | Sequence | protease stability score
26 | DEEEEHWKHIAKEYLDNFRTGDWKNFMDNADPDYRFILSQGNKEDNHHGMHFFVEWILRFLKKFKNATFVLRHFSIQGNKIHMELDITVGDKRIDTKINIEIIDGVVHTIEIRLD | 0.821
27 | DEEEEIAHEMVRELVKVLETGDEEIWERLMDPNDRIHIGDKNLVGMDETRKWINEFMERIDHIRVRVRSIHPVDGRANLDTEITTHYNGRTTTYKVLLIVVKVNGRWVLESMHIK | 1.93
28 | DEEEEIARKYITLLVKSFLTGDERSIERLVDPHYRHDVGDKHVHGRERFTRHIYENLIRVKGIRVEVIVEHIRVINGRVEVDMQIHWKQGEFQILITSRMHVEKVDGRWLIREVEID | 0.976
29 | DEEEEIARRIFKIFVHNVLTGDEDSLRKMIDPNTRLHVDGQELHGREQALTFLHEMRIDHMELRELRVIDGRIISHIRVDGEINGRRRDIQTEIILYKVDGRWVIRQMRFQ | 2.39
30 | DEEEEIARRITELWLTYMMTGDEDALIHMADPNVKSILIINGRHVHYHGREYWTKMLRDLGFKHTRIRRVDLQGDYSRLDIEDDFNGVYTRSELRLKVVNGRFHTIEINIH | 1.08
31 | DEEEEIFRHLFKLFVDATETGDEHILKELLDPHTRIHVNGQDFHGRENAIHFWRHMRIDEIRLKEIEVQGDKIHITGHVRGQIDGQQVRTDFELIMVKIDGRWKIHSEIYH | 2
32 | DEEEEIIKEQLRILKKNLETGDWKAVLKMFDPNVREDVNGQTLIGRELWAQIFVEMGVDHIIERRVDIQGDKIRLYGQLDQGDKKHTTHIHARKVDGRWTFESVHVR | 1.08
33 | DEEEEILREFSEKWLHAFRTGDWRDIWHLMDPHVKVIIFVDGREKEIHGREEYATQLHERLEKVKGMRFRDKDMDHVNGRLVINVTVHQGDKHKEFRIIIDVVNGRVKRIEIHLH | 2.06
34 | DEEEEILRRFIEEWLYAELTGDFHVLHELFDPNVRIEINGVDKHGMHIVIKELLEFYRRVKNLRVEFELRDEKRFDGVVIIIGVRRISINGQTHEEETILVIVKVNGRWVMKEIWFN | 1.64
35 | DEEEEILRTFIRLMHEAWLTGDWKTFEEMLDPHARLHINGKDLHGREQMARRIEELGIKHVEDKDMETQGNKIHLKQIVYVNGRTFELRQFIIKVNGRWVIQHVEVITR | 1.38
36 | DEEEEIMRKIIEDLRHNTETGDEELMQDLMDPHARIDIDGQKLHGREYVRFLHDEFKGATWIWREVRLQGDKLDVHVEVRFDGRTLHVDIHYVIVNGRTKEIRVHWD | 1.28
37 | DEEEEINKKIVEDLFRALITGDEERQLKNMDPNTKIRTNVNGQDYIFHGRDLWVTLWNRFKNLRVEIESVHRQGNKIHFDTRLLFNGRIFQYHIVVISVNGQTKELKEHDE | 1.24
38 | DEEEEISRRIVKLLIELFETGDEEKWKELADPDARVDIDGVDSVGRKHAIHLLHEWKEQLGFKHHRIHSIHVYGEFIDVDGLLIVNGRKIRIHFHFIVVNGRLKEQRLHIE | 1.3
39 | DEEEEIVMKNARDLIHLTQTGDFEKQRHLLDPHVLVVLVQGDKRIEQHGWHFWKYLMKEIRIKHIRIDHVEAQGNKAQVRGTVDGNINGRDTHWEFELTFVFIDGRIRTIDIRID | 1.4
40 | DEEEEKAKHVLELWSRAMLTGDEDEYKKLADPHTRLIVDGQTFHGWENFTKSHNQIKNIKIDDVHVENHHIQGNKMFVDLRFEMEFNGRILHKETHLFIEKIDGKWLIRTQEIH | 0.767
41 | DEEEEKDRILVEIWKRLVLTGDEEELLNLADPEARQTVHFNGKEVRNVGMERVIEHNREYLRLMGVDHITVDRSRVVNGRVENHHRVFVGEKEIRFEIEVTIINGRLRSVTIRVR | 0.379
42 | DEEEEKLKKWADDTIQLLRTGDEEDLYKMLDPHARTEVNGRELHGREEMFKVLKTIWDKVKGIKFLHRDHRLYNGRVEIHGELVIGDKIHKVHIIVLIINGKIKEVEIHIH | 1.39
43 | DEEEEKLRELIRIFIEDWKTGDFDSLAHLLDPNARLDIHINGVHLHYHGREKILEFLWRWFERFKNARVELKRIRIVNGRSEIDSETTFNGRSSDMEIDIVIINGRVRSERFKVG | 1.47
44 | DEEEEKLRFAVELFEETFRTGDEKLKEHLADPDVRVHYGDFEYHGRETLERWTRFVKGVKVELKSIDIINGVLDLDGTLHFNGRTFDTRYLALKINGRWILKRVIIH | 1.49
45 | DEEEEKSKRMLEIIIHAVMTGDFQHLLDNMDPHVKLDIDGVDLHGRESAEEFVKKVKNLTLHDWKLDHWHIQGDKVTMHVTIDGLYNGKKERTRVIIIALKINGQWHIKSMKID | 1.9
46 | DEEEELAHKATEHWLHLVRTGDEEKISSQADPNTKVEIRQGDKRIDSHGMEHFSELLRKLIEDYGVNHIHVNIVRLIDGRVHVNSLVHVGDKEIKIHIWADKVNGRWIHRNMHVHVG | 0.547
47 | DEEEELAIEVVQRWVEDFLTGDFRSFRELADPNTKTRINGQEMHGRHVYVEWFVKWLKQIDHHDFKLHDVKVINGQVHTDGEMRLEVNGREHRSRVELILVIINGRLHMVELRIK | 2.13
48 | DEEEELAIHFWRLFLHLIITGDWERLTELMDPNVRIDINGKEIHGRELASEHLRKLMEHARFRDHHLEDVKIYDGVVEMHGRIDGRFDGKDVDTRMIVYTVKVNGKWLLKRVVHL | 2.32
49 | DEEEELAKEMLERFNKSLHTGDEESIERLLDPDVRVIFNGKDLIGRETVADFLKEWRMSVHTFEIRRFHSQGEKMHLDGHTEIKIHFNGKTVHLNHRVEHHMHKVNGRWTIHSIQFL | 1.18
50 | DEEEELARKSLEVWLKSSQTGDENHLEHMFDPNARLNIDGVELIGREHAKIWAKELRIHDIYPRRLRIQGNKLFLDLESDEEYNGKRTHFRRHLVMLKVNGVWIIESMHVE | 1.43
